# Biological target: the molecule itself
# Assay: crystal structure
protein,measurement,value
"GDAP1ΔTM T157P (Ganglioside-induced differentiation-associated protein 1, amino acids 1-322, T157P) (domain or fragment, mouse) GGSMARRQDEARAGVPLRVEGPPDKEVHLILYHWTHSFSSQKVRLVIAEKALKCEEHDVSLPLSEHNEPWFMRLNSAGEVPVLVHGENIICEATQIIDYLEQTFLDERTPRLMPDEGSMYYPRVQHYRELLDSLPMDAYTHGCILHPELTVDSMIPAYAPTRIRSQIGNTESELKKLAEENPDLQEAYIAKQKRLKSKLLDHDNVKYLKKILDELEKVLDQVETELQRRNEETPEEGNQPWLCGESFTLADVSLAVTLHRLKFLGFARRNWGHGKRPNLETYYERVLKRKTFNKVLGHVNNILISAVLPTAFRVAKKRAPKVLGS",binding result,binds

# From doi:10.1101/2022.10.28.514248 (bioRxiv, 2022)
